Data as given in patent US20110262445A1 (CEPHALON AUSTRALIA, published 2011).
Like-named read-outs stand apart in the source and are kept apart here.

T1: human IL-12 (human, UniProt P29460 23-328; P29459 23-219)
T1 construct: Recombinant (Peprotech); FLAG-tagged IL-12 in the flow cytometry assays, biotinylated in the IL-12Rβ2 assay; also called hIL-12
T1 sequence 1: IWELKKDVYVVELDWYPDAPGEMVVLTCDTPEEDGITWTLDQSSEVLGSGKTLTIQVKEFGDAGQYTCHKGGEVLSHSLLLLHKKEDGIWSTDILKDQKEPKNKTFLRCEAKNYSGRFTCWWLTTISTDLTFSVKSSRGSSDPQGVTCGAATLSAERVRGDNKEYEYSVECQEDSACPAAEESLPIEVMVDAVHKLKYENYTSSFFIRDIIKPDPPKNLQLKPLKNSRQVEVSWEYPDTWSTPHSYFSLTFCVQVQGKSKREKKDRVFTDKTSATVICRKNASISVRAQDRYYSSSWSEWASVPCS
T1 sequence 2: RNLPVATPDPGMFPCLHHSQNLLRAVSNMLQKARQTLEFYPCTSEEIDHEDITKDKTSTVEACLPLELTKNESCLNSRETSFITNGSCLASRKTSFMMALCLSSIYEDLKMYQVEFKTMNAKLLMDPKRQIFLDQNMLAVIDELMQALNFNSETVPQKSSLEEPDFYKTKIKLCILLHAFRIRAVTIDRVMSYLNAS

T2: human IL-23 (human, UniProt P29460 23-328; Q9NPF7 20-189)
T2 construct: Recombinant (Ebioscience); HIS-tagged in flow cytometry, biotinylated in some assays; also called hIL-23; rhIL-23
T2 sequence 1: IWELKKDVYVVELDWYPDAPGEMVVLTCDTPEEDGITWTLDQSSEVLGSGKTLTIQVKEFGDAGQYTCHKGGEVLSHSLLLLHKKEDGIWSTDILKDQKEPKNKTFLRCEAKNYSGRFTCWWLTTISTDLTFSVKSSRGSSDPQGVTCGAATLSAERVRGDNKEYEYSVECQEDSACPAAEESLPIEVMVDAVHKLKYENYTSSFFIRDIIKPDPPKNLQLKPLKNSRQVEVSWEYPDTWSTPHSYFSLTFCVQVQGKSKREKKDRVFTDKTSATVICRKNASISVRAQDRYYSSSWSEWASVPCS
T2 sequence 2: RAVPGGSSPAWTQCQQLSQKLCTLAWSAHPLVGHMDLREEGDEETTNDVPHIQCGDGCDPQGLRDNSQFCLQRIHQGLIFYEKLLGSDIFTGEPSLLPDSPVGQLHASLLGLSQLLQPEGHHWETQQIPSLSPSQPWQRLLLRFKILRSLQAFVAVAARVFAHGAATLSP


Key:
[1] = target: T1, human IL-12; assay: ELISA, coated IL-12
Summary of the method: (§1)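 Maxisorp plates were coated overnight at 4° C with cytokine at 1 μg/mL in carbonate buffer pH 9.6, then blocked for 1 hour at 25° C with 1% BSA in PBS. Antibody titrations were allowed to bind for 1 hour at 25° C and detected with goat anti-human IgG or anti-murine immunoglobulin HRP (1:2000, 1 hour), followed by TMB development stopped with 1M HCl. Binding is reported as absorbance. Readings were taken at 450 nm against a 620 nm reference.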

[2] = target: T2, human IL-23; assay: ELISA, coated IL-23
Summary of the method: as §1

[3] = target: T1, human IL-12; assay: ELISA, coated IL-12; remark: listed apart in the source
Summary of the method: as §1

[4] = target: T2, human IL-23; assay: ELISA, coated IL-23; remark: listed apart in the source
Summary of the method: as §1

Row | Binder | binding result [1] | binding result [2] | binding result [3] | binding result [4]
1 | Antibody 147 (antibody, human IgG1, kappa, V domains shown) VH: EVQLVQSGAEVKKPGATVKISCKASGYTFSDYYLHWVRQAPEKGLEWMGWIDPENGDTEYAPKFQGRVTITADTSTDTGYLELSSLRSEDTAVYYCAANKELRYFDVWGQGTLVTVSS VL: DIQMTQSPSSVSASVGDRVTITCRASQSISINLHWYQQKPGKAPKLLIYFASQSISGVPSRFSGSGSGTDFSLTINSLQTEDFARYYCQQSNSFPLTFGGGTKVEIKR |  |  | binds | binds
2 | Antibody 66 (antibody, human IgG1, kappa, V domains shown) VH: EVQLVQSGAEVKKPGATVKISCKASGYTFSDYYLHWVRQAPGKGLEWMGWIDPENGDTEYAPKFQGRVTITADTSTDTGYLELSSLRSEDTAVYYCAANKELRYFDVWGQGTLVTVSS VL: DIQMTQSPSSVSASVGDRVTITCRASQSISINLHWYQQKPGKAPKLLIYFASQSISGVPSRFSGSGSGTDFSLTINSLQPEDFARYYCQQSNSFPLTFGGGTKVEIKR | binds | binds |  | 
3 | Antibody 61 (antibody, human IgG1, kappa, V domains shown) VH: EVQLVQSGAEVKKPGATVKISCKASGYTFSDYYLHWVRQAPGKGLEWMGWIDPENGDTEYAPKFQGRVTITADTSTDTGYLELSSLRSEDTAVYYCAANKELRYFDVWGQGTLVTVSS VL: DIQMTQSPSSVSASVGDRVTITCRASQSISINLHWYQQKPGKAPKLLIYFASQSISGVPSRFSGYGSGTDFSLTINSLQPEDFATYYCQQSNSFPLTFGGGTKVEIKR | binds | binds |  | 
4 | Antibody 143 (antibody, human IgG1, kappa, V domains shown) VH: EVQLVQSGAEVKKPGATVKISCKASGYTFSDYYLHWVRQAPEKGLEWMGWIDPENGDTEYAPKFQGRVTITADTSTDTGYLELSSLRSEDTAVYYCAANKELRYFDVWGQGTLVTVSS VL: DIQMTQSPSSVSASVGDRVTITCRASQSISINLHWYQQKPHKAPKLLIYFASQSISGVPSRFSGSGSGTDFSLTINSLQPEDFARYYCQQSNSFPLTFGGGTKVEIKR |  |  | binds | binds
5 | Antibody 142 (antibody, human IgG1, kappa, V domains shown) VH: EVQLVQSGAEVKKPGATVKISCKASGYTFSDYYLHWVRQAPEKGLEWMGWIDPENGDTEYAPKFQGRVTITADTSTDTGYLELSSLRSEDTAVYYCAANKELRYFDVWGQGTLVTVSS VL: DIQMTQSPSSVSASVGDRVTITCRASQSISINLHWYQQKSGKAPKLLIYFASQSISGVPSRFSGSGSGTDFSLTINSLQPEDFARYYCQQSNSFPLTFGGGTKVEIKR |  |  | binds | binds
6 | Antibody 144 (antibody, human IgG1, kappa, V domains shown) VH: EVQLVQSGAEVKKPGATVKISCKASGYTFSDYYLHWVRQAPEKGLEWMGWIDPENGDTEYAPKFQGRVTITADTSTDTGYLELSSLRSEDTAVYYCAANKELRYFDVWGQGTLVTVSS VL: DIQMTQSPSSVSASVGDRVTITCRASQSISINLHWYQQKPGEAPKLLIYFASQSISGVPSRFSGSGSGTDFSLTINSLQPEDFARYYCQQSNSFPLTFGGGTKVEIKR |  |  | binds | binds
7 | Antibody 148 (antibody, human IgG1, kappa, V domains shown) VH: EVQLVQSGAEVKKPGATVKISCKASGYTFSDYYLHWVRQAPEKGLEWMGWIDPENGDTEYAPKFQGRVTITADTSTDTGYLELSSLRSEDTAVYYCAANKELRYFDVWGQGTLVTVSS VL: DIQMTQSPSSVSASVGDRVTITCRASQSISINLHWYQQKPGKAPKLLIYFASQSISGVPSRFSGSGSGTDFSLTINSLQPEDFARYFCQQSNSFPLTFGGGTKVEIKR |  |  | binds | binds
8 | Antibody 63 (antibody, human IgG1, kappa, V domains shown) VH: EVQLVQSGAEVKKPGATVKISCKASGYTFSDYYLHWVRQAPEKGLEWMGWIDPENGDTEYAPKFQGRVTITADTSTDTGYLELSSLRSEDTAVYYCAANKELRYFDVWGQGTLVTVSS VL: DIQMTQSPSSVSASVGDRVTITCRASQSISINLHWYQQKPGKAPKLLIYFASQSISGVPSRFSGYGSGTDFSLTINSLQPEDFATYYCQQSNSFPLTFGGGTKVEIKR | binds | binds |  | 

Continued, values first:

Row | binding result [1] | binding result [2] | binding result [3] | binding result [4] | Binder
9 | binds | binds |  |  | Antibody 60 (antibody, human IgG1, kappa, V domains shown) VH: EVQLVQSGAEVKKPGATVKISCKASGYTFSDYYLHWVRQRPEKGLEWMGWIDPENGDTEYAPKFQGKVTITADTSTDTGYLELSSLRSEDTAVYYCAANKELRYFDVWGQGTLVTVSS VL: DIQMTQSPSSVSASVGDRVTITCRASQSISINLHWYQQKPGKAPKLLIKFASQSISGVPSRFSGSGSGTDFSLTINSLQPEDFATYYCQQSNSFPLTFGGGTKVEIKR
10 |  |  | binds | binds | Antibody 146 (antibody, human IgG1, kappa, V domains shown) VH: EVQLVQSGAEVKKPGATVKISCKASGYTFSDYYLHWVRQAPEKGLEWMGWIDPENGDTEYAPKFQGRVTITADTSTDTGYLELSSLRSEDTAVYYCAANKELRYFDVWGQGTLVTVSS VL: DIQMTQSPSSVSASVGDRVTITCRASQSISINLHWYQQKPGKAPKLLIYFASQSISGIPSRFSGSGSGTDFSLTINSLQPEDFARYYCQQSNSFPLTFGGGTKVEIKR
11 | binds | binds |  |  | Antibody 67 (antibody, human IgG1, kappa, V domains shown) VH: EVQLVQSGAEVKKPGATVKISCKASGYTFSDYYLHWVRQRPGKGLEWMGWIDPENGDTEYAPKFQGRVTITADTSTDTGYLELSSLRSEDTAVYYCAANKELRYFDVWGQGTLVTVSS VL: DIQMTQSPSSVSASVGDRVTITCRASQSISINLHWYQQKPGKAPKLLIYFASQSISGVPSRFSGSGSGTDFSLTINSLQPEDFARYYCQQSNSFPLTFGGGTKVEIKR
12 |  |  | binds | binds | Antibody 145 (antibody, human IgG1, kappa, V domains shown) VH: EVQLVQSGAEVKKPGATVKISCKASGYTFSDYYLHWVRQAPEKGLEWMGWIDPENGDTEYAPKFQGRVTITADTSTDTGYLELSSLRSEDTAVYYCAANKELRYFDVWGQGTLVTVSS VL: DIQMTQSPSSVSASVGDRVTITCRASQSISINLHWYQQKPGKSPKLLIYFASQSISGVPSRFSGSGSGTDFSLTINSLQPEDFARYYCQQSNSFPLTFGGGTKVEIKR
13 | binds | binds |  |  | Antibody 62 (antibody, human IgG1, kappa, V domains shown) VH: EVQLVQSGAEVKKPGATVKISCKASGYTFSDYYLHWVRQRPGKGLEWMGWIDPENGDTEYAPKFQGRVTITADTSTDTGYLELSSLRSEDTAVYYCAANKELRYFDVWGQGTLVTVSS VL: DIQMTQSPSSVSASVGDRVTITCRASQSISINLHWYQQKPGKAPKLLIYFASQSISGVPSRFSGYGSGTDFSLTINSLQPEDFATYYCQQSNSFPLTFGGGTKVEIKR
14 | binds | binds |  |  | Antibody 65 (antibody, human IgG1, kappa, V domains shown) VH: EVQLVQSGAEVKKPGATVKISCKASGYTFSDYYLHWVRQRPEKGLEWMGWIDPENGDTEYAPKFQGKVTITADTSTDTGYLELSSLRSEDTAVYYCAANKELRYFDVWGQGTLVTVSS VL: DIQMTQSPSSVSASVGDRVTITCRASQSISINLHWYQQKPGKAPKLLIYFASQSISGVPSRFSGYGSGTDFSLTINSLQPEDFATYYCQQSNSFPLTFGGGTKVEIKR
15 | binds | binds |  |  | Antibody 64 (antibody, human IgG1, kappa, V domains shown) VH: EVQLVQSGAEVKKPGATVKISCKASGYTFSDYYLHWVRQAPGKGLEWMGWIDPENGDTEYAPKFQGKVTITADTSTDTGYLELSSLRSEDTAVYYCAANKELRYFDVWGQGTLVTVSS VL: DIQMTQSPSSVSASVGDRVTITCRASQSISINLHWYQQKPGKAPKLLIYFASQSISGVPSRFSGYGSGTDFSLTINSLQPEDFATYYCQQSNSFPLTFGGGTKVEIKR
